{"source": "paper doi:10.1101/089938", "target": "Alanine racemase (Alr) from Streptomyces coelicolor A3(2), His6-tagged (Streptomyces coelicolor A3(2)) (UniProt O86786)", "assay": "SEC", "data": [{"substance": "Alanine racemase (Alr) from Streptomyces coelicolor A3(2), His6-tagged (from UniProt O86786 1-391) (enzyme)", "values": [{"measurement": "stoichiometry N", "result": 2}]}]}
